This note sets out measurements from paper PMC11617674, “The activity of the ribonucleotide monophosphatase UmpH is controlled by interaction with the GlnK signaling protein in Escherichia coli” (The Journal of Biological Chemistry, 2024).

Test [1] has as its target UmpH (ribonucleotide monophosphatase), untagged recombinant (E. coli) (UniProt P0AF24).
Test [2] has the same target. The source holds these as a separate data set.
The target of test [3] is His-GlnK (E. coli PII signaling protein GlnK, N-terminal His tag) (E. coli) (UniProt P0AC55). Briefly: BLI; His-GlnK on Ni-NTA biosensor, UmpH as analyte; 20 mM Hepes pH 7.4, 50 mM KCl, 5 mM MgCl2, 2 mM DTT, 2 mM NAG; no effector; 1:1 (GlnK trimer:UmpH monomer) model.
His-GlnK (E. coli PII signaling protein GlnK, N-terminal His tag) (E. coli), sequence (P0AC55 whole entry): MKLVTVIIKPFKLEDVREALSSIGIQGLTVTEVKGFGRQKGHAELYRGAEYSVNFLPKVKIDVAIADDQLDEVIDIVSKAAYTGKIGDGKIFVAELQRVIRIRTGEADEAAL
The target is the same in test [4]. Briefly: BLI; His-GlnK on Ni-NTA biosensor, UmpH as analyte; 20 mM Hepes pH 7.4, 50 mM KCl, 5 mM MgCl2, 2 mM DTT, 2 mM NAG; 1 mM ATP; 1:1 (GlnK trimer:UmpH monomer) model. (BLI is a label-free optical method that tracks binding on a fibre tip over time.)
Test [5] has the same target. Nature of the test: BLI; His-GlnK on Ni-NTA biosensor, UmpH as analyte; 20 mM Hepes pH 7.4, 50 mM KCl, 5 mM MgCl2, 2 mM DTT, 2 mM NAG; 1 mM ADP; 1:1 (GlnK trimer:UmpH monomer) model.

UmpH (ribonucleotide monophosphatase), untagged recombinant (E. coli), sequence (P0AF24 whole entry): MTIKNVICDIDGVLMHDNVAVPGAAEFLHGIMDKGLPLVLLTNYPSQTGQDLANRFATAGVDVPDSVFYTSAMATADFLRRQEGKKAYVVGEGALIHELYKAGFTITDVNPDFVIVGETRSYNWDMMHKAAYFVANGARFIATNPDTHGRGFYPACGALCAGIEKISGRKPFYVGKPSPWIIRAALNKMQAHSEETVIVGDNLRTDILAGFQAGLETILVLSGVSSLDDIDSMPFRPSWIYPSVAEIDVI

Turning to “His-GlnK (E. coli PII signaling protein GlnK, N-terminal His tag) (from UniProt P0AC55 1-112) (natural protein)”, the inhibition of UmpH phosphatase activity (0.5 mM UMP, 0.1 mM ADP, 0.56 μM UmpH) against increasing GlnK trimer up to 2 μM in test [1] came out at 50%. Further, in test [2], the UmpH Vmax (phosphate release from UMP), decrease in the presence of 2 μM GlnK trimer, 0.56 μM UmpH monomer, no GlnK effectors came out at 30% and the UmpH catalytic efficiency (Vmax/KM) for UMP, decrease in the presence of 2 μM GlnK trimer, 0.56 μM UmpH monomer, no GlnK effectors amounted to 68%.
“UmpH (ribonucleotide monophosphatase), untagged recombinant (from UniProt P0AF24 1-250) (enzyme)”: the Kd in test [3] was 50.6 nM; in test [4], 37.3 nM; in test [5], 7.8 nM.

As usually defined, the Kd is the free concentration of one partner at which half of the binding sites on the other are occupied at equilibrium, for simple one-to-one binding. A low value points to higher affinity.
